This is an account of results in publication PMC5737801 (Nucleic Acids Research, 2017).

Data set [1] deals with T1, GST-TyrRS E196K fusion protein, full length (human, UniProt P54577 1-528, E196K).
T1 sequence: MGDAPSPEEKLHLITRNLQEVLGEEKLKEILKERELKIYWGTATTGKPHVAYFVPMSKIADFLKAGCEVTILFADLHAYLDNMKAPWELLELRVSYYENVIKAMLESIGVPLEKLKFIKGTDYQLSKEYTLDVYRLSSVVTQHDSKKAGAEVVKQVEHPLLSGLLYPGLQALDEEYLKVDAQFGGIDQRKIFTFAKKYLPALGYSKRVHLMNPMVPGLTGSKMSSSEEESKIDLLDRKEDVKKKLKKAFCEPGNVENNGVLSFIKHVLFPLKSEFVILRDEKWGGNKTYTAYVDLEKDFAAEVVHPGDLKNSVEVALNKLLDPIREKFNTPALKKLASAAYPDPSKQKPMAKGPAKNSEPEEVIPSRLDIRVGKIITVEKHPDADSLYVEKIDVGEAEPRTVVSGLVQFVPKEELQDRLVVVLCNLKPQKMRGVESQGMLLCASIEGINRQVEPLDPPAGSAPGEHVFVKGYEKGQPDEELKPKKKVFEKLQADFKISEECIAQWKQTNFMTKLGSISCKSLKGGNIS
The data set is described as follows: BLI.

For data set [2], the target named is T2, GST-TyrRS fusion protein, wild type, full length (human, UniProt P54577 1-528).
T2 sequence: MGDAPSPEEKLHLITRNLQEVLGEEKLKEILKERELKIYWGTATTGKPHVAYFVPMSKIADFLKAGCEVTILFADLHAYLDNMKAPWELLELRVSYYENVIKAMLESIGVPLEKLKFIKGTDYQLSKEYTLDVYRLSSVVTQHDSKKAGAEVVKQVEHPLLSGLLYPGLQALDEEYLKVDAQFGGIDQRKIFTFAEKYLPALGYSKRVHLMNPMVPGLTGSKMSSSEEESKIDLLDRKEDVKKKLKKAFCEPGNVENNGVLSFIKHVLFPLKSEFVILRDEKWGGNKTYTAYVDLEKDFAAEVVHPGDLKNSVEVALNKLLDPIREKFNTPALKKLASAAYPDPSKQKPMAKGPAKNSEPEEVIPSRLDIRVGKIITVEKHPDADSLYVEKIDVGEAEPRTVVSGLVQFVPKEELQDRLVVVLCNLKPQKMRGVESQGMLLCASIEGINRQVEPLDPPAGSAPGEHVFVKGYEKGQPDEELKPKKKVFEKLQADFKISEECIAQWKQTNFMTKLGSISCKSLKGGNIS
The data set is described as follows: BLI. (In general: In BLI a coated tip is dipped into the sample, and binding shifts an interference pattern.)

For data set [3], the target named is T3, GST-TyrRS Δ153-156 fusion protein, full length (human, UniProt P54577 1-528, Δ153-156VKQV).
T3 sequence: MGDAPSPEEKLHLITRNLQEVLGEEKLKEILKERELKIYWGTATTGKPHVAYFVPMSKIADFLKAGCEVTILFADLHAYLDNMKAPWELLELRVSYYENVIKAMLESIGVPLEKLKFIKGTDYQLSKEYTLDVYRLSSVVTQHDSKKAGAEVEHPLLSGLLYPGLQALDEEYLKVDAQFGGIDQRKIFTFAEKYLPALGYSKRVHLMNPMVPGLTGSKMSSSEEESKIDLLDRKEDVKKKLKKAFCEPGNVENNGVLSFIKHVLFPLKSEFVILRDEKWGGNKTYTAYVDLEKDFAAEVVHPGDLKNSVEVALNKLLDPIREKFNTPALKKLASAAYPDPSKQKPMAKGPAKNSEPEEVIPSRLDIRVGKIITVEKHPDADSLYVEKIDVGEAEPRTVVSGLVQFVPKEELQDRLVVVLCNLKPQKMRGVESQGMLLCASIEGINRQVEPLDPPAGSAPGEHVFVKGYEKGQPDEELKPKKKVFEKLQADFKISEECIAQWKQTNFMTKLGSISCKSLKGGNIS
In words: BLI.

The data set “SAXS” deals with the molecule itself. The data set is described as follows: SAXS.
The data set “SEC” concerns the molecule itself. In words: SEC. (In general: In gel filtration, larger molecules generally elute earlier.)

B1: RBCC (aa 65–378 of TRIM28) (domain or fragment)
chain: CGVCRERLRPEREPRLLPCLHSACSACLGPAAPAAANSSGDGGAAGDGTVVDCPVCKQQCFSKDIVENYFMRDSGSKAATDAQDANQCCTSCEDNAPATSYCVECSEPLCETCVEAHQRVKYTKDHTVRSTGPAKSRDGERTVYCNVHKHEPLVLFCESCDTLTCRDCQLNAHKDHQYQFLEDAVRNQRKLLASLVKRLGDKHATLQKSTKEVRSSIRQVSDVQKRVQVDVKMAILQIMKELNKRGRVLVNDAQKVTEGQQERLERQHWTMTKIQKHQEHILRFASWALESDNNTALLLSKKLIYFQLHRALKM
Consider B1, for which the “fold increase in binding affinity against TyrRS^WT” value in data set [1] and in data set [3] was 5 fold throughout. Further, the binding result in data set [2] is given as “binds”.

B2: full-length tyrosyl-tRNA synthetase G41R mutant (TyrRS^G41R), C-terminal hexahistidine tag (enzyme)
chain: MGDAPSPEEKLHLITRNLQEVLGEEKLKEILKERELKIYWRTATTGKPHVAYFVPMSKIADFLKAGCEVTILFADLHAYLDNMKAPWELLELRVSYYENVIKAMLESIGVPLEKLKFIKGTDYQLSKEYTLDVYRLSSVVTQHDSKKAGAEVVKQVEHPLLSGLLYPGLQALDEEYLKVDAQFGGIDQRKIFTFAEKYLPALGYSKRVHLMNPMVPGLTGSKMSSSEEESKIDLLDRKEDVKKKLKKAFCEPGNVENNGVLSFIKHVLFPLKSEFVILRDEKWGGNKTYTAYVDLEKDFAAEVVHPGDLKNSVEVALNKLLDPIREKFNTPALKKLASAAYPDPSKQKPMAKGPAKNSEPEEVIPSRLDIRVGKIITVEKHPDADSLYVEKIDVGEAEPRTVVSGLVQFVPKEELQDRLVVVLCNLKPQKMRGVESQGMLLCASIEGINRQVEPLDPPAGSAPGEHVFVKGYEKGQPDEELKPKKKVFEKLQADFKISEECIAQWKQTNFMTKLGSISCKSLKGGNIS
Consider B2, for which, in “SAXS”, the “stoichiometry N” value was found to be 2. In addition, the Kd in “SEC” was ~200 nM.

B3: full-length tyrosyl-tRNA synthetase E196K mutant (TyrRS^E196K), C-terminal hexahistidine tag (enzyme)
chain: MGDAPSPEEKLHLITRNLQEVLGEEKLKEILKERELKIYWGTATTGKPHVAYFVPMSKIADFLKAGCEVTILFADLHAYLDNMKAPWELLELRVSYYENVIKAMLESIGVPLEKLKFIKGTDYQLSKEYTLDVYRLSSVVTQHDSKKAGAEVVKQVEHPLLSGLLYPGLQALDEEYLKVDAQFGGIDQRKIFTFAKKYLPALGYSKRVHLMNPMVPGLTGSKMSSSEEESKIDLLDRKEDVKKKLKKAFCEPGNVENNGVLSFIKHVLFPLKSEFVILRDEKWGGNKTYTAYVDLEKDFAAEVVHPGDLKNSVEVALNKLLDPIREKFNTPALKKLASAAYPDPSKQKPMAKGPAKNSEPEEVIPSRLDIRVGKIITVEKHPDADSLYVEKIDVGEAEPRTVVSGLVQFVPKEELQDRLVVVLCNLKPQKMRGVESQGMLLCASIEGINRQVEPLDPPAGSAPGEHVFVKGYEKGQPDEELKPKKKVFEKLQADFKISEECIAQWKQTNFMTKLGSISCKSLKGGNIS
For B3, in the data set “SAXS”, the “stoichiometry N” value was 2.

B4: full-length tyrosyl-tRNA synthetase, wild type (TyrRS^WT), C-terminal hexahistidine tag (enzyme)
chain: MGDAPSPEEKLHLITRNLQEVLGEEKLKEILKERELKIYWGTATTGKPHVAYFVPMSKIADFLKAGCEVTILFADLHAYLDNMKAPWELLELRVSYYENVIKAMLESIGVPLEKLKFIKGTDYQLSKEYTLDVYRLSSVVTQHDSKKAGAEVVKQVEHPLLSGLLYPGLQALDEEYLKVDAQFGGIDQRKIFTFAEKYLPALGYSKRVHLMNPMVPGLTGSKMSSSEEESKIDLLDRKEDVKKKLKKAFCEPGNVENNGVLSFIKHVLFPLKSEFVILRDEKWGGNKTYTAYVDLEKDFAAEVVHPGDLKNSVEVALNKLLDPIREKFNTPALKKLASAAYPDPSKQKPMAKGPAKNSEPEEVIPSRLDIRVGKIITVEKHPDADSLYVEKIDVGEAEPRTVVSGLVQFVPKEELQDRLVVVLCNLKPQKMRGVESQGMLLCASIEGINRQVEPLDPPAGSAPGEHVFVKGYEKGQPDEELKPKKKVFEKLQADFKISEECIAQWKQTNFMTKLGSISCKSLKGGNIS
For B4, the equilibrium dissociation constant (Kd) in “SEC” is ~200 nM.

B5: full-length tyrosyl-tRNA synthetase Δ153-156 deletion mutant (TyrRS^Δ153-156), C-terminal hexahistidine tag (enzyme)
chain: MGDAPSPEEKLHLITRNLQEVLGEEKLKEILKERELKIYWGTATTGKPHVAYFVPMSKIADFLKAGCEVTILFADLHAYLDNMKAPWELLELRVSYYENVIKAMLESIGVPLEKLKFIKGTDYQLSKEYTLDVYRLSSVVTQHDSKKAGAEVEHPLLSGLLYPGLQALDEEYLKVDAQFGGIDQRKIFTFAEKYLPALGYSKRVHLMNPMVPGLTGSKMSSSEEESKIDLLDRKEDVKKKLKKAFCEPGNVENNGVLSFIKHVLFPLKSEFVILRDEKWGGNKTYTAYVDLEKDFAAEVVHPGDLKNSVEVALNKLLDPIREKFNTPALKKLASAAYPDPSKQKPMAKGPAKNSEPEEVIPSRLDIRVGKIITVEKHPDADSLYVEKIDVGEAEPRTVVSGLVQFVPKEELQDRLVVVLCNLKPQKMRGVESQGMLLCASIEGINRQVEPLDPPAGSAPGEHVFVKGYEKGQPDEELKPKKKVFEKLQADFKISEECIAQWKQTNFMTKLGSISCKSLKGGNIS
B5: in “SEC”, the Kd was ~200 nM.

The term stoichiometry N denotes a count of units in the complex or per binding partner. For orientation: Kd means a measure of binding affinity in units of concentration. Low readings indicate a tighter complex, high ones a looser complex.
